Results as given in article doi:10.1101/379495v1.

Substrate: O=[N+]([O-])c1ccc(O[C@@H]2O[C@@H](CO)[C@H](O)[C@H]2O)cc1
Experiment: purified protein
Conditions: general assay: sodium acetate buffer pH 5.5, 37 °C

B1: BLLJ_1852 (Bifidobacterium longum subsp. longum JCM 1217) (protein)
chain: DTVPTNNLIAAYDFTTKPSDGKTVANSAPNATLGAAEVQNSADSLWADDALTLSGGAKTGTGDWVKLPSNLLSGKDAATVQLEVKADSSMLNAFHFLWNIGNDSSDTEYFFATLNCGSSRNPLVGLKSGGTETLVQSSSCVAKADQWLSVTATIDGTAAKLYIDGTQVASGTVPAKLSSVKDQSLNTIGRSPWPDNLFKGAVSNFRVYDAALTADQVAAISTADASIHAGELTGSVLNGIIIPTTVDDPFISLPTANGVTWASSDSSVIATDGTVNQPAKGEAAKTVTLTAAVTVRGQTATKEFTVTVNPTTKTAAEQLKEVAAGYVIPSVVRSGDALPAAVNGTTVTVTSTKDVAVEDGKITIDGDEATTGTITVEFSKNGLAGIEPITKAFTVKVLPAAKSATIAAYDRNATGENEANNGDVAYSMHLALQNADGSYTPYNENYGIFFARSPKAQKLNENLDGNDYRSLKDPSLFRMADGTYGVISVRTNRGTATGDSTAKSSVLIATSEDLLTYSEQENSGSIVDLGETNGVNAPYAVYDTASKQYVVGWADDNGVAKYTTFDSLKGSTSKHGSVLYGSVAKSGVLAADGVQGIANFRSGATIAVDEATVKALNTRYGRSENTGTSNLTDITVKKGASIDEVTAQLPKNVDLTYSDGSTGSLPISSWNTEGIDLTKVGDYTVTGTVKQTEYQIPFAEDRADPSVYKWQWTHEADGKEVTETKFLMIASNDIQGDVTWQHGSPHMPFRMADTISGLADEPGNPNALIQSNGYNNKEVSLLKAGDKDSEGNAIMHSFWAPEIHEIDGRLTILFMAGYGNTWSNGKSVYMQLKQDADGHDLDPADPDNWTVPTPIYRNDASLLNGNKQLAATASGGVGMSLDMTYFQDADGRSYYAWQQLGATYIATMDPKDPAHVTSSPVRIVTPEYAWNAAIAEGPNVTLRDGKLYLMFSGSGVGKTYTTGLAVADASGTDLTDPASWTVLNYPIQKSGPFNGEMQLGTGHGMWSEDEDGNQIYVFHAYATKNLGSVNATGRDMFVRRVHWAADGMPVFDMSSSEELASKTVSVTVKVVDDTVTVDKTDLSKALASAKQLRESDYTAASWKAFAAALASAEKVYADENASQKDVDDATAALNKAQAALVKVDGSDSGDGSSDSTKPGDGSSIDAGATGDKTGNKLGLS
Km: 9.8 mM
kcat: 19.2 s⁻¹
